{"source": "paper PMC10699557", "about": "“A recombinant approach for stapled peptide discovery yields inhibitors of the RAD51 recombinase” (Chemical Science, 2023)", "binders": {"B1": {"name": "GB1-SP7-His8, mock-stapled (linear) (peptide)", "chain": "VNSSAFSGFCTASGKKLNVSCEALQKAVKLFSDIENIS", "modifications": "not checked"}}, "target": "HumRadA22", "test": "fluorescence polarisation; competition: displacement of a fluorescently-labelled BRC4 repeat from HumRadA22; KD calculated from IC50; single titrations with three technical replicates at each point; mock (linear) samples with 500 uM TCEP", "data": [{"binder": "B1", "values": [{"measurement": "Kd", "result": 39, "unit": "nM"}]}]}
